From patent US7968297B2, “Method for identification, isolation and production of antigens to a specific pathogen” (Intercell AG, priority 2001, dated 2011)

The sequences below were run against T1, DRA1*0101/DRB1*0401 (Homo sapiens, UniProt P01903+P01911, A100K/A169T/F76Y/I96L/K127E/L162R/M171V/N62H/P40V/Q125Y/R42H/S133A/S149N/S66Y/V115G/V209L/W38E) (assay: Competition assay with soluble HLA class II molecules). Conditions: binding to soluble DRA1*0101/DRB1*0401 molecules.
T1 construct: using recombinant soluble versions of HLA class II molecules; made in house; host or cells: SC-2 cells
Design: key: +, + +: binding; +, + +: binding; −: no competition up to 200 μM test peptide
Procedure: Binding of peptides to HLA molecules on the surface of antigen-presenting cells is a prerequisite for activation of T cells. Binding was assessed in vitro by two independent biochemical assays using recombinant soluble versions of HLA class II molecules. One assay measures the concentration dependent competitive replacement of a labeled reference peptide by the test peptides. The second assay is based on the formation of SDS-stable complexes upon binding of high- and intermediate affinity ligands.
Soluble HLA molecules (DRA1*0101/DRB1*0101 and DRA1*0101/DRB1*0401) were expressed in SC-2 cells and purified as described in Aichinger et al., 1997. For the competition assay (Hammer et al. 1995) HLA molecules were applied between 50 and 200 ng/well. For DRB1*0101 biotinilated indicator peptide HA (PKYVKQNTLKLAT—SEQ ID NO:602, Valli et al. 1993) was used at 0.008 μM. […] Molecules, indicator and test peptides were incubated overnight at 37° C., pH 7. HLA:peptide complexes obtained after incubation with serial dilutions of test and reference peptides (the known high-affinity binders HA and UD4 were used as positive control) were captured in ELISA plates coated with antibody L243, which is known to recognize a conformational epitope formed only by correctly associated heterodimers. Incorporated biotin was measured by standard colorimetric detection using a streptavidin-alkaline phosphatase conjugate (Dako) with NBT/BCIP tablets (Sigma) as substrate and automated OD reading on a Victor reader (Wallac).
“PSLNIKNVNYQYAVPSYSPT (listed as Staphylococcus aureus) [p306-326]” was tested, and the binding was “+”. In the case of “QSWWGLYALLGMLALFIPKFRKESK (listed as Staphylococcus aureus) [p871-896]”, the binding is reported as “− (−: no competition up to 200 μM test peptide)”. With “MNYGYGPGVVTSRTISASQA (EMNYGYGPGVVTSRTISASQA; listed as Staphylococcus aureus) [p240-260]” the binding was “+”. With KLLVLTMSTLFATQIMNSNHAKASV [p4-29] the binding was “+”.
